Bridge positions count the residues as written; N and C are the ends. Ends that are not written are not given here.
Molecular target: polyclonal mouse anti-TSHR antibodies contained in sera from Ad-TSHR-immunized mice
Assay: competition ELISA: sera pre-incubated with peptide 19, binding of polyclonal anti-TSHR antibodies to coated TSHR-Fc

Binder: CHQEEDFRVTC (disulfide 1-11) [cyclic peptide 19]
- IC50: 20 nM

Reference: patent US20220041692A1
